Results published in the supplement of paper PMC10065799, “High-throughput profiling of sequence recognition by tyrosine kinases and SH2 domains using bacterial peptide display” (eLife, 2023).

These sequences were tested against Fes (UniProt P07332) (assay: phosphorylation enrichment, bacterial display (enrichment ratio); higher = better substrate or ligand; peptides without Tyr show the background).
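Note: 11-residue human phosphosite peptides and single-mutation variants displayed on the E. coli surface, counted by deep sequencing, each peptide's frequency after selection divided by its frequency in the unselected input library; frequency after pTyr selection over input frequency; kinase dosed for 20-30% of maximal phosphorylation in three min.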

Chain of Fes (P07332 whole entry, looked up): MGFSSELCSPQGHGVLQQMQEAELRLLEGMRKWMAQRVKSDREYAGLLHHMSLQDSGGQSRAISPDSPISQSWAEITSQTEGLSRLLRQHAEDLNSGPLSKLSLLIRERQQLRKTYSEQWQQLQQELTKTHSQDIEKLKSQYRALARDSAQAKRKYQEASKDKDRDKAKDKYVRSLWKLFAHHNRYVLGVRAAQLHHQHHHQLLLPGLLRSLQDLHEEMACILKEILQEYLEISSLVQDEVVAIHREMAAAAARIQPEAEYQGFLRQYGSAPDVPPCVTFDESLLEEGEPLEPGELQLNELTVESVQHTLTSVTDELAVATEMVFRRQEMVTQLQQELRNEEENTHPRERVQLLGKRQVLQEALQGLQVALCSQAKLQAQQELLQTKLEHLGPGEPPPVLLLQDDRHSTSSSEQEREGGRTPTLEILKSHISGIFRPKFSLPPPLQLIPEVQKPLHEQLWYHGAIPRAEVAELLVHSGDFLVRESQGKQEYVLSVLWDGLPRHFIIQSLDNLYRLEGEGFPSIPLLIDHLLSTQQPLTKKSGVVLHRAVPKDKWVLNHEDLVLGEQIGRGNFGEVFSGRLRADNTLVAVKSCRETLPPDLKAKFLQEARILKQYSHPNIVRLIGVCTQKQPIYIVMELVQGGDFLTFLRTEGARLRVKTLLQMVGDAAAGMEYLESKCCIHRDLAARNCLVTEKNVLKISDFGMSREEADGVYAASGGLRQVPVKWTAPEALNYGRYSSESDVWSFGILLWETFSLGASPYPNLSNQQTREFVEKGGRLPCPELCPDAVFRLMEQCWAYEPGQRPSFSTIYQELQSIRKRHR

| Sequence | phosphorylation enrichment |
| --- | --- |
| FFIMMYTGSNV [DNAJC13_Y1131] | 1.29 |
| CTTIHNNYMCN [TP53_Y234_Y234N] | 0.725 |
| VEFAKYGSLRG [RET_Y809_YF] | 0.664 |
| ALAHKYHGGGG [HBB_Y146] | 0.578 |
| SVVVPYEAPEV [TP53_Y220_P222A] | 1.01 |
| NNHGNYIVLLG [ETFDH_Y172_R175L] | 0.902 |
| GGDAVYTNGAI [RFX2_Y82] | 0.638 |
| PVVKLYATDGR [RP1_Y199] | 1.01 |
| GHGRFYMKEAI [PGM1_Y66_D62H] | 0.754 |
| HEKKAYAFCGT [RPS6KA3_Y226_S227A] | 0.887 |
| RGDCTYAPLLG [AR_Y269_M268T] | 1.46 |
| QRTMKYTTATE [MCCC1_Y41_G46E] | 1.23 |
| HRGCLYLAIEY [TEK_Y899_Y897C] | 2.3 |
| SFGENYDNSKS [MAN1B1_Y60] | 0.958 |
| PHQTIYSALMI [FGF23_Y70] | 3.94 |
| ALAHKYLGGGG [HBB_Y146_H147L] | 0.389 |
| NNIDYYKKTTN [FGFR2_Y657] | 0.703 |

| Sequence | phosphorylation enrichment |
| --- | --- |
| LASSEYPVQRR [GALK1_Y236_R239Q] | 1.32 |
| TFEPNYGTVKR [RAPGEF6_Y1447_Q1452R_YF] | 0.586 |
| VFDMLYQVANL [USP24_Y1087_L1089V] | 1.06 |
| HKDNNYISMWF [PAPOLG_Y432_V433I] | 2.53 |
| ARMTNCGLPRY [TSPAN12_Y138_Y138C] | 0.602 |
| FQSKHYACIRQ [TIMP3_Y182_YF] | 0.829 |
| KSLSQYLEMDK [CAGE1_Y438_V435L] | 0.836 |
| PHRSIYFSSPK [MPG_Y75_Y71H] | 0.859 |
| DHKRQYELLKL [KIF4B_Y684_R680H] | 0.697 |
| AAVDEYLEYRR [FAM221A_Y17] | 1 |
| IEEGTYGVVYR [CDK11B_Y449] | 1.01 |
| SNKLYYQLEQE [PDPR_Y110] | 1.19 |
| SAASSYSFSDL [EMD_Y59] | 0.951 |
| CDTKLYTSVPN [DNTTIP2_Y427_A430V] | 1.12 |
| MEVGQYIFVKC [CYBB_Y324] | 1.53 |
| DYNPNYCFAGK [ALK_Y1096] | 1.03 |

The sequences below were run against EPHB2 (UniProt P29323) in the same assay as above.
Chain of EPHB2 (P29323 whole entry, looked up): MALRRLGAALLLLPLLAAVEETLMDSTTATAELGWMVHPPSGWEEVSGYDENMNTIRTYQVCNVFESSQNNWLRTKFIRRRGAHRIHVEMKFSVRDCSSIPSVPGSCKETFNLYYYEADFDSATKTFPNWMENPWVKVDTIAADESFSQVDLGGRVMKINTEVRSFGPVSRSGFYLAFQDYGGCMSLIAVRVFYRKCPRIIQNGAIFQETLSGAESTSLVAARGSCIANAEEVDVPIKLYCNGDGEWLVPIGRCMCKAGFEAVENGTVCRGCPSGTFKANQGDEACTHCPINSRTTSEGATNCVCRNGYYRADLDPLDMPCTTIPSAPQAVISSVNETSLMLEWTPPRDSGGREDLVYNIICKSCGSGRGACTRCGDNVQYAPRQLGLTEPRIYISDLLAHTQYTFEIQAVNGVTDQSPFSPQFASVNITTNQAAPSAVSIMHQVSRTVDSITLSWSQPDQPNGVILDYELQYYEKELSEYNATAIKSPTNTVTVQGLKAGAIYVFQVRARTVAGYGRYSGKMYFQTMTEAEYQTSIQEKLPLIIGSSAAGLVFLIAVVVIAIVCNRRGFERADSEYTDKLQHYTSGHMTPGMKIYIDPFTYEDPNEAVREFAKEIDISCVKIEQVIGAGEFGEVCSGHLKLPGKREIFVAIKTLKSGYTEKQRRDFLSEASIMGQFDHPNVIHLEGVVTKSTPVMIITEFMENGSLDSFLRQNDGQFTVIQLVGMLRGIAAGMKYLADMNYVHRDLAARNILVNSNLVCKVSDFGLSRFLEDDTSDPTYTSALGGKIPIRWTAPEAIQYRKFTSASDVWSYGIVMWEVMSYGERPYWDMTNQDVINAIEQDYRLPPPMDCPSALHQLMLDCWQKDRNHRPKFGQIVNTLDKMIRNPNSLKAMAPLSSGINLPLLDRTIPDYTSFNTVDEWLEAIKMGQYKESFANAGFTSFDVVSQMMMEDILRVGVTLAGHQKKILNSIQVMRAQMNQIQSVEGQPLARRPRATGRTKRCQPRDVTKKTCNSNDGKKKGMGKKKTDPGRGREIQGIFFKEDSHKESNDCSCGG

| Sequence | phosphorylation enrichment |
| --- | --- |
| FFIMMYTGSNV [DNAJC13_Y1131] | 0.664 |
| CTTIHNNYMCN [TP53_Y234_Y234N] | 0.456 |
| VEFAKYGSLRG [RET_Y809_YF] | 0.458 |
| ALAHKYHGGGG [HBB_Y146] | 0.349 |
| SVVVPYEAPEV [TP53_Y220_P222A] | 0.485 |
| NNHGNYIVLLG [ETFDH_Y172_R175L] | 3.86 |
| GGDAVYTNGAI [RFX2_Y82] | 0.486 |
| PVVKLYATDGR [RP1_Y199] | 0.78 |
| GHGRFYMKEAI [PGM1_Y66_D62H] | 0.418 |
| HEKKAYAFCGT [RPS6KA3_Y226_S227A] | 0.46 |
| RGDCTYAPLLG [AR_Y269_M268T] | 9.28 |
| QRTMKYTTATE [MCCC1_Y41_G46E] | 1.43 |
| HRGCLYLAIEY [TEK_Y899_Y897C] | 1.17 |
| SFGENYDNSKS [MAN1B1_Y60] | 0.461 |
| PHQTIYSALMI [FGF23_Y70] | 4.45 |
| ALAHKYLGGGG [HBB_Y146_H147L] | 0.387 |
| NNIDYYKKTTN [FGFR2_Y657] | 0.527 |

| Sequence | phosphorylation enrichment |
| --- | --- |
| LASSEYPVQRR [GALK1_Y236_R239Q] | 0.308 |
| TFEPNYGTVKR [RAPGEF6_Y1447_Q1452R_YF] | 1.45 |
| VFDMLYQVANL [USP24_Y1087_L1089V] | 5.28 |
| HKDNNYISMWF [PAPOLG_Y432_V433I] | 2.15 |
| ARMTNCGLPRY [TSPAN12_Y138_Y138C] | 0.365 |
| FQSKHYACIRQ [TIMP3_Y182_YF] | 0.478 |
| KSLSQYLEMDK [CAGE1_Y438_V435L] | 0.483 |
| PHRSIYFSSPK [MPG_Y75_Y71H] | 0.61 |
| DHKRQYELLKL [KIF4B_Y684_R680H] | 0.429 |
| AAVDEYLEYRR [FAM221A_Y17] | 0.477 |
| IEEGTYGVVYR [CDK11B_Y449] | 10.8 |
| SNKLYYQLEQE [PDPR_Y110] | 0.761 |
| SAASSYSFSDL [EMD_Y59] | 0.47 |
| CDTKLYTSVPN [DNTTIP2_Y427_A430V] | 0.77 |
| MEVGQYIFVKC [CYBB_Y324] | 0.723 |
| DYNPNYCFAGK [ALK_Y1096] | 1.07 |

Each sequence was assayed against Hck (UniProt P08631) in the same assay as above.
Chain of Hck (P08631 whole entry, looked up): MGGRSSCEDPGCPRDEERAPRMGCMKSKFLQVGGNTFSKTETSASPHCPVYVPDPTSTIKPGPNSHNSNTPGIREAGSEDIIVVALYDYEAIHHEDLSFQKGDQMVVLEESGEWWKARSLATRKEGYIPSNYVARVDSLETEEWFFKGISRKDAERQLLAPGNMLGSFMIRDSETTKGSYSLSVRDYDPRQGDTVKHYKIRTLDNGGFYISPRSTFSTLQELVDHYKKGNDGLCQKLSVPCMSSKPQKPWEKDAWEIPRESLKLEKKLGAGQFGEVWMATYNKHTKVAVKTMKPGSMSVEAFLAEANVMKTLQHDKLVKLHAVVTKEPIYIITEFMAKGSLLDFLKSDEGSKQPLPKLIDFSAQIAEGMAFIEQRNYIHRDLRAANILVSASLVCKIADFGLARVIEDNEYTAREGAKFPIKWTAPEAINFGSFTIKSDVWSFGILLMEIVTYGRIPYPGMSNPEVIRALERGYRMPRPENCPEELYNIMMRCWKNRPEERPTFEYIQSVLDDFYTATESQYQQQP

| Sequence | phosphorylation enrichment |
| --- | --- |
| FFIMMYTGSNV [DNAJC13_Y1131] | 0.505 |
| CTTIHNNYMCN [TP53_Y234_Y234N] | 0.423 |
| VEFAKYGSLRG [RET_Y809_YF] | 0.488 |
| ALAHKYHGGGG [HBB_Y146] | 0.417 |
| SVVVPYEAPEV [TP53_Y220_P222A] | 0.492 |
| NNHGNYIVLLG [ETFDH_Y172_R175L] | 0.433 |
| GGDAVYTNGAI [RFX2_Y82] | 1.34 |
| PVVKLYATDGR [RP1_Y199] | 0.554 |
| GHGRFYMKEAI [PGM1_Y66_D62H] | 0.404 |
| HEKKAYAFCGT [RPS6KA3_Y226_S227A] | 0.63 |
| RGDCTYAPLLG [AR_Y269_M268T] | 9.33 |
| QRTMKYTTATE [MCCC1_Y41_G46E] | 0.966 |
| HRGCLYLAIEY [TEK_Y899_Y897C] | 1.05 |
| SFGENYDNSKS [MAN1B1_Y60] | 0.408 |
| PHQTIYSALMI [FGF23_Y70] | 12.8 |
| ALAHKYLGGGG [HBB_Y146_H147L] | 0.347 |
| NNIDYYKKTTN [FGFR2_Y657] | 0.764 |

| Sequence | phosphorylation enrichment |
| --- | --- |
| LASSEYPVQRR [GALK1_Y236_R239Q] | 0.761 |
| TFEPNYGTVKR [RAPGEF6_Y1447_Q1452R_YF] | 2.72 |
| VFDMLYQVANL [USP24_Y1087_L1089V] | 4.24 |
| HKDNNYISMWF [PAPOLG_Y432_V433I] | 0.866 |
| ARMTNCGLPRY [TSPAN12_Y138_Y138C] | 0.453 |
| FQSKHYACIRQ [TIMP3_Y182_YF] | 0.392 |
| KSLSQYLEMDK [CAGE1_Y438_V435L] | 0.415 |
| PHRSIYFSSPK [MPG_Y75_Y71H] | 1.48 |
| DHKRQYELLKL [KIF4B_Y684_R680H] | 0.415 |
| AAVDEYLEYRR [FAM221A_Y17] | 0.863 |
| IEEGTYGVVYR [CDK11B_Y449] | 7.29 |
| SNKLYYQLEQE [PDPR_Y110] | 0.922 |
| SAASSYSFSDL [EMD_Y59] | 0.468 |
| CDTKLYTSVPN [DNTTIP2_Y427_A430V] | 1.01 |
| MEVGQYIFVKC [CYBB_Y324] | 0.582 |
| DYNPNYCFAGK [ALK_Y1096] | 0.563 |

What follows are sequences tested against Fyn (UniProt P06241) in the same assay as above.
Chain of Fyn (P06241 whole entry, looked up): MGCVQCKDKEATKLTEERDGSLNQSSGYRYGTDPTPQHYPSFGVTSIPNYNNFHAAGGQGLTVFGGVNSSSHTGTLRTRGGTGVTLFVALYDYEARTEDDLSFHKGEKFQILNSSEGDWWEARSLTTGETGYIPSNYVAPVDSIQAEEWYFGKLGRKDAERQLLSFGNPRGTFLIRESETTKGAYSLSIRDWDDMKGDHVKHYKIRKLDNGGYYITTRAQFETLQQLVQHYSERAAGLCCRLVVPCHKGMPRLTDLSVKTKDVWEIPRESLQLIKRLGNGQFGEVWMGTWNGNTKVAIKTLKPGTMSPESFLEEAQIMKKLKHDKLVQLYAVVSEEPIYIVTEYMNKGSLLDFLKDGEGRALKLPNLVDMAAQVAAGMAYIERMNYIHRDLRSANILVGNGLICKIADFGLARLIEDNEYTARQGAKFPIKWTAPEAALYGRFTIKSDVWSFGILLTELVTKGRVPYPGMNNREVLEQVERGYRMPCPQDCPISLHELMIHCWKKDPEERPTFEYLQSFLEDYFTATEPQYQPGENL

| Sequence | phosphorylation enrichment |
| --- | --- |
| FFIMMYTGSNV [DNAJC13_Y1131] | 0.433 |
| CTTIHNNYMCN [TP53_Y234_Y234N] | 0.432 |
| VEFAKYGSLRG [RET_Y809_YF] | 0.528 |
| ALAHKYHGGGG [HBB_Y146] | 0.426 |
| SVVVPYEAPEV [TP53_Y220_P222A] | 0.442 |
| NNHGNYIVLLG [ETFDH_Y172_R175L] | 0.458 |
| GGDAVYTNGAI [RFX2_Y82] | 1.3 |
| PVVKLYATDGR [RP1_Y199] | 0.601 |
| GHGRFYMKEAI [PGM1_Y66_D62H] | 0.407 |
| HEKKAYAFCGT [RPS6KA3_Y226_S227A] | 0.54 |
| RGDCTYAPLLG [AR_Y269_M268T] | 8.94 |
| QRTMKYTTATE [MCCC1_Y41_G46E] | 0.781 |
| HRGCLYLAIEY [TEK_Y899_Y897C] | 0.695 |
| SFGENYDNSKS [MAN1B1_Y60] | 0.438 |
| PHQTIYSALMI [FGF23_Y70] | 12.7 |
| ALAHKYLGGGG [HBB_Y146_H147L] | 0.366 |
| NNIDYYKKTTN [FGFR2_Y657] | 0.633 |

| Sequence | phosphorylation enrichment |
| --- | --- |
| LASSEYPVQRR [GALK1_Y236_R239Q] | 1.07 |
| TFEPNYGTVKR [RAPGEF6_Y1447_Q1452R_YF] | 3.76 |
| VFDMLYQVANL [USP24_Y1087_L1089V] | 2.92 |
| HKDNNYISMWF [PAPOLG_Y432_V433I] | 0.934 |
| ARMTNCGLPRY [TSPAN12_Y138_Y138C] | 0.394 |
| FQSKHYACIRQ [TIMP3_Y182_YF] | 0.375 |
| KSLSQYLEMDK [CAGE1_Y438_V435L] | 0.445 |
| PHRSIYFSSPK [MPG_Y75_Y71H] | 0.982 |
| DHKRQYELLKL [KIF4B_Y684_R680H] | 0.395 |
| AAVDEYLEYRR [FAM221A_Y17] | 0.62 |
| IEEGTYGVVYR [CDK11B_Y449] | 8.95 |
| SNKLYYQLEQE [PDPR_Y110] | 1.52 |
| SAASSYSFSDL [EMD_Y59] | 0.477 |
| CDTKLYTSVPN [DNTTIP2_Y427_A430V] | 0.655 |
| MEVGQYIFVKC [CYBB_Y324] | 0.599 |
| DYNPNYCFAGK [ALK_Y1096] | 0.607 |
